Values quoted from earlier work in publication PMC3526765.

Biological target: Cys30 (UniProt position 49, FFSFFCPHCYQ)
Conditions: reduced DsbA (free Cys30 thiol/thiolate); inferred from context, not stated explicitly

Thiol:disulfide interchange protein DsbA (EcDsbA) (Escherichia coli (K12))
pKa: ~3.3
